Results taken from patent US20260184748A1 (University of Pennsylvania, published 2026).
Where no end group is shown, it is not given here.

Assays:
Experiment in all cases: cell-based or functional assay
PROKR1 = PROKR1 (UniProt Q8TCW9 1-393)
MC4R = MC4R (UniProt P32245 1-332)
CHRM4 = target: T1, CHRM4 (UniProt P08173 1-479)
T1 sequence (looked up): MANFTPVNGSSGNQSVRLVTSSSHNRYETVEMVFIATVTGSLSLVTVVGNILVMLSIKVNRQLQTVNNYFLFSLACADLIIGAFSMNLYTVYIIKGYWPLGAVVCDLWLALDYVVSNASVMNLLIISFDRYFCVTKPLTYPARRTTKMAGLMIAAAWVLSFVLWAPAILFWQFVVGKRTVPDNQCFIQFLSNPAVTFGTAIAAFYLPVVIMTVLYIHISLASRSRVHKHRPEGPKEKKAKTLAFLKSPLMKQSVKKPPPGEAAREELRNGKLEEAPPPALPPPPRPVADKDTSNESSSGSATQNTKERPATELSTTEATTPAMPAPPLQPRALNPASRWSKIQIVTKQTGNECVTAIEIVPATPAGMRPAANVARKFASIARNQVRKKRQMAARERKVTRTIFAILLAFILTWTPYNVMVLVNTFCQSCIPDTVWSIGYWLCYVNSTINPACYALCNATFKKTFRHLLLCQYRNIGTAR

AVPR1B = target: T2, AVPR1B (UniProt P47901 1-424)
T2 sequence (looked up): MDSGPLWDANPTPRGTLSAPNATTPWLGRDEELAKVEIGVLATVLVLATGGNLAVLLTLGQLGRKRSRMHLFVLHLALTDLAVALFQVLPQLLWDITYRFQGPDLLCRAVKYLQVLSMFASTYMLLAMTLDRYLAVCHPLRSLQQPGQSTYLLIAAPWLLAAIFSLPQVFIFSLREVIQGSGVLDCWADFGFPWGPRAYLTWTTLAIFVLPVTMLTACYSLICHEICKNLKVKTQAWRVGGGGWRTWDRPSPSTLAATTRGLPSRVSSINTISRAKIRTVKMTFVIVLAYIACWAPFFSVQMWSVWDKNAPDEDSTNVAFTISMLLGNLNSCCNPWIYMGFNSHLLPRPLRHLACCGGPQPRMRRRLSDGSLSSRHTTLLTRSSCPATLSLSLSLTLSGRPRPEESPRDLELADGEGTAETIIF

CCR2 = target: T3, CCR2 (UniProt P41597-2 1-360, limits assumed)
T3 sequence (looked up): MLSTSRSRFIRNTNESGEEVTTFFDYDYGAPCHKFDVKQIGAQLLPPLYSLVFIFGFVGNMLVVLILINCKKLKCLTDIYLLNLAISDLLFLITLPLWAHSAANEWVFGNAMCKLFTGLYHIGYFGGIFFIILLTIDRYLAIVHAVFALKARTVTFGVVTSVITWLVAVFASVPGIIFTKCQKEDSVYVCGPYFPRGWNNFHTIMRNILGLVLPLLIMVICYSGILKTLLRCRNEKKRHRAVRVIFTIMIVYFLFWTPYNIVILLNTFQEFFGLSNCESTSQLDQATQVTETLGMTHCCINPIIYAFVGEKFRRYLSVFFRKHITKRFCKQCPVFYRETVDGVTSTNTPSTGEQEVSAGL

[1] = target: T4, relaxin-3 receptor (RXFP3) (UniProt Q9NSD7 1-469)
T4 sequence (looked up): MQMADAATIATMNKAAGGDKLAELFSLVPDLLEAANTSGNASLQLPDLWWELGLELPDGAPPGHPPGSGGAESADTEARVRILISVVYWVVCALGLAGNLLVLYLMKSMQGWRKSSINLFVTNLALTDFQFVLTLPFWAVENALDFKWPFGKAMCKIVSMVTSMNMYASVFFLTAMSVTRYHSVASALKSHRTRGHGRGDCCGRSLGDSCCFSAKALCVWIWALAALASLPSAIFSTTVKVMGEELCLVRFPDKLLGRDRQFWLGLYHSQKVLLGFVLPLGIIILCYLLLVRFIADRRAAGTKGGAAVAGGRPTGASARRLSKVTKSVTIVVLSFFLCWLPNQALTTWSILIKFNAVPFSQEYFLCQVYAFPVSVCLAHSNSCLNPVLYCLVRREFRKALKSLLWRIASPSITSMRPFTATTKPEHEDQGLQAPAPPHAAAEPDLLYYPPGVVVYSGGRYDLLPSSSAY

OXTR = target: T5, OXTR (UniProt P30559 1-389)
T5 sequence (looked up): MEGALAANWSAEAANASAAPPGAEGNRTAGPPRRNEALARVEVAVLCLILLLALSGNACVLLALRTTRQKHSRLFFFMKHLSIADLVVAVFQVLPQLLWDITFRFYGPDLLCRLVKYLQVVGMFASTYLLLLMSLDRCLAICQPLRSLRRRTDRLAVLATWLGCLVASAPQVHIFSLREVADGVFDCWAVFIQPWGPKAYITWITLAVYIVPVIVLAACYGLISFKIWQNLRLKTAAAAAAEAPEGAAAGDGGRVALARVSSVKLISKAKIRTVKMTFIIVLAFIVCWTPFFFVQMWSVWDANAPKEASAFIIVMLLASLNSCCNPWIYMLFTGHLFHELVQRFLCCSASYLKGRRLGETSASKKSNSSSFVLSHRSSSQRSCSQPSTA

ADRA2B = target: T6, ADRA2B (UniProt P18089 1-450)
T6 sequence (looked up): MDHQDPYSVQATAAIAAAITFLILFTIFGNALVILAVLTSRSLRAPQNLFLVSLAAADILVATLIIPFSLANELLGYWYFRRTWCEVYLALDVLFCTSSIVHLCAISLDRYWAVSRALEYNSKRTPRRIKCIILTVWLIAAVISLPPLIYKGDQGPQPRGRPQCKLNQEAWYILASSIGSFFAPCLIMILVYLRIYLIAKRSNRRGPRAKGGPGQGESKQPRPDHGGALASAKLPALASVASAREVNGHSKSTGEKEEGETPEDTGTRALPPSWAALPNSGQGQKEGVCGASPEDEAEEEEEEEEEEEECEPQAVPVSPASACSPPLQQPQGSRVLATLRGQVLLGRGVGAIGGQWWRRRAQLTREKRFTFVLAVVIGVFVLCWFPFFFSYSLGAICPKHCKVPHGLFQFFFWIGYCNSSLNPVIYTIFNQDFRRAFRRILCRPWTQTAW

Chain of PROKR1 (Q8TCW9 whole entry): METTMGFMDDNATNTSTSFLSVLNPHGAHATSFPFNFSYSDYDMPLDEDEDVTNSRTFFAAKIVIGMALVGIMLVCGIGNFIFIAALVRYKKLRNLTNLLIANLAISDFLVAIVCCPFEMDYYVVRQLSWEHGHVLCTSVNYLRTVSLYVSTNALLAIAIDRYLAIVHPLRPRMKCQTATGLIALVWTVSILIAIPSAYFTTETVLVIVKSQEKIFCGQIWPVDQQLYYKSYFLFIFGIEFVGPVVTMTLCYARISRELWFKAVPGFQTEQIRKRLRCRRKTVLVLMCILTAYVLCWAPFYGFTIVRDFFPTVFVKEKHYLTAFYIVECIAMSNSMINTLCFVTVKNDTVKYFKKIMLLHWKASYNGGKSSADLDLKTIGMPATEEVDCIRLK
Chain of MC4R (P32245 whole entry): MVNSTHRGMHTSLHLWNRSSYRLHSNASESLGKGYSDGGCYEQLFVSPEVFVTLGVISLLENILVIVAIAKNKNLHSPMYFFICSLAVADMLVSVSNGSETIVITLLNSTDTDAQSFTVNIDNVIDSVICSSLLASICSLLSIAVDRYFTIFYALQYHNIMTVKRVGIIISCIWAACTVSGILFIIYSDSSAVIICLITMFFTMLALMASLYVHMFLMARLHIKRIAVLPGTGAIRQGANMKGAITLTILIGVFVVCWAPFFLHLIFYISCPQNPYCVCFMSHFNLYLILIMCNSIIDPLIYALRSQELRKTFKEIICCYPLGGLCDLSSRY

B1: octadecaneuropeptide (ODN) (peptide)
peptide: QATVGDVNTDRPGLLDLK
modifications: also: synthesised on Rink amide resin, C-terminal amide not given here outright
**Q.** How did the “% Activity, arrestin, antagonist mode, 2.5 uM” value (“% Activity, arrestin” below) (PROKR1) turn out when B1 was run?
**A.** -12.4%

**Q.** What about the “% Activity, arrestin” value (MC4R) of the same binder?
**A.** -4.6%

**Q.** What about the “% Activity, arrestin” value (CHRM4) of the same binder?
**A.** 5.8%

**Q.** And the “% Activity, arrestin” value (AVPR1B)?
**A.** -25.7%

**Q.** And the “% Activity, arrestin” value (CCR2)?
**A.** -15.4%

**Q.** And the “% Activity, arrestin” value [1]?
**A.** 31.4%

**Q.** And the “% Activity, arrestin” value (OXTR)?
**A.** 1.3%

**Q.** And the “% Activity, arrestin” value (ADRA2B)?
**A.** -36.8%
